Reference: FireProtDB (doi:10.1002/prot.340230110)

B1: Regulatory protein rop, P03051 (parent)
chain: MTKQEKTALNMARFIRSQTLTLLEKLNELDADEQADICESLHDHADELYRSCLARFGDDGENL

Variants of: B1
Details: Escherichia coli, pH 6, Thermal, DSC, Sodium phosphate/Sodium sulfate 10 mM/10 mM/, reversible: yes, structure 1ROP, whole UniProt chain shown

| Variant | ddG of mutation (higher = less stable) (25 °C) [kcal/mol] | heat capacity change of unfolding (25 °C) [kcal/mol/K] | unfolding free energy (25 °C) [kcal/mol] | Tm [°C] | change of melting temperature, mutant - wild type (higher = more stable) [°C] | heat capacity change of unfolding [kcal/mol/K] | unfolding enthalpy (calorimetric) [kcal/mol] | unfolding enthalpy (van 't Hoff) [kcal/mol] |
| --- | --- | --- | --- | --- | --- | --- | --- | --- |
| MTKQEKTALNMARFIRSQTLTLLEKLNELDADEQADICESAHDHADELYRSCLARFGDDGENL [L41A] | 6.12 | 1.65 | 11 | 52.9 | -18.1 | 1.65 | 80.1 | 92.8 |
| MTKQEKTALNMARFIRSQTLTLLEKLNELDADEQADICESVHDHADELYRSCLARFGDDGENL [L41V] | 2.53 | 1.99 | 14.6 | 65.3 | -5.7 | 1.99 | 110 | 114 |
